What was measured:
[1] = molecular target: T1, oncostatin M (hOSM, mature) (Homo sapiens, UniProt P13725 SEQ:26-221); experiment: competition; blocks OSM binding to gp130-Fc, ELISA; details: tags: expressed in E. coli as GST fusion, GST removed by thrombin cleavage
T1 sequence: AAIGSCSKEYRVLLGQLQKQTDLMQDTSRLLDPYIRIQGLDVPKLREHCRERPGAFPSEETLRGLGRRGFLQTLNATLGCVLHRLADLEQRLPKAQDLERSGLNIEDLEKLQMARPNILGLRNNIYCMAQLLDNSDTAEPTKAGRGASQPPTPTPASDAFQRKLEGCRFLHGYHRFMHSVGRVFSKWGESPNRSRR
Method: Effect of Point Mutations on the Ability of OSM-GST to Compete with Wild Type OSM Binding to gp130-Fc in an ELISA Nunc Immunoplates (F6 Maxisorp, Life Technologies) were coated overnight (4° C.) with wild type OSM (produced according to Example 7a); 50 µl/well, 1 µg/ml in carbonate/bicarbonate buffer pH 9.4). Plates were washed (×6 in PBS 0.05% tween 20, using Skatron Plate washer), tapped dry and blocked to reduce non-specific binding (200 µl/well, 1% BSA/PBS). Following 1 h incubation (room temperature on a shaking platform) the plates were tapped dry and wild type (wt) or mutant OSM-GST from Example 9b added (50 µl/well, 20–0.002 µg/ml, titrated in 1%BSA/PBS). As a positive control polyclonal anti-human OSM antibody (R&D Systems) was also tested (20–0.02 µg/ml). […] Following a 5 h incubation (room temperature on a shaking platform) the plates were washed (×6) and developed using ELISA Amplification System (Life Technologies) as manufacturer's instructions and the OD measured at 490 nm. On each plate the total binding was determined by gp130-Fc/conjugate and OSM in the presence of 1%BSA/PBS, and non-specific binding by gp130-Fc/conjugate in absence of OSM, or conjugate binding to OSM in absence of gp130-Fc. […]

[2] = molecular target: T2, oncostatin M (murine OSM) (Mus musculus, UniProt P53347 P53347:23-206); experiment: filter; no binding at any concentration tested; details: tags: R&D Systems
T2 sequence: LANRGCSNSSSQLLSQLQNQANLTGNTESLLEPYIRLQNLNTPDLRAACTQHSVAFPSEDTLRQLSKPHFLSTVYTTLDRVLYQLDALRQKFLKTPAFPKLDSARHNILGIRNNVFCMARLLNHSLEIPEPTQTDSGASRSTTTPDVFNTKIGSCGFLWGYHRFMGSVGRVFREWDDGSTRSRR

[3] = molecular target: T1, oncostatin M (hOSM, mature); experiment: filter; SCHMK buffer (1 mM MgCl2, 1 mM CaCl2), 37 C; details: tags: expressed in E. coli as GST fusion, GST removed by thrombin cleavage
Method: Binding assays were carried out as described (Fitzwater and Polisky supra). […] Transcribed RNA was dephosphorylated using bacterial alkaline phosphatase for 30 min at 65° C. Dephosphorylated RNA was then 5' labelled using polynucleotide kinase and γ-^33P ATP. Radiolabelled RNA was gel purified, and incubated at 37° C. for 30 min with a serial dilution of hOSM in SCHMK buffer (45 μl OSM plus 5 μl radiolabelled RNA at 1000 cpm/μl). […] The filters were washed immediately with 5 ml SCHMK buffer, dried and counted in a liquid scintillation counter. […] The data sets were fitted by the non-linear least squares method using an EXEL software package.

TNF alpha (biotinylated) = TNF alpha (biotinylated) (UniProt P01375 P01375:77-233); experiment: competition; no inhibition of TNFalpha binding to TNFR1; details: tags: biotin, NEN; chain copies: 3
Chain of TNF alpha (biotinylated) (P01375 77-233, one chain of several): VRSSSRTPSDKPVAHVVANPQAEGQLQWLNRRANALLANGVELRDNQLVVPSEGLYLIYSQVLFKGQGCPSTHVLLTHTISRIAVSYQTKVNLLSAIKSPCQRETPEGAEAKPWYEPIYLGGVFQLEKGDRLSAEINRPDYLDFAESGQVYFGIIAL
Method: Nunc Immunoplates (F6 Maxisorp, Life Technologies) were coated overnight (4° C.) with sheep anti-human IgG (Serolabs) (50 µl/well, 1 µg/ml in PBS). Plates were washed (×6 in PBS 0.05% tween 20, using Skatron Plate washer), tapped dry and blocked to reduce non-specific binding (200µl/well, 1% BSA/PBS). […] As a positive control an anti-TNFR1 monoclonal antibody (R&D Systems) was included. […] Following a 2 h incubation (room temperature on a shaking platform) the plates were washed (×6) and developed using ELISA Amplification System (Life Technologies) according to the manufacturer's instructions and the OD measured at 490 nm.

B1: ADR58 (ssRNA)
RNA: GGGAGGACGAUGCGGAUCGCCCUGAACCGGCCCAGCAGACUGCUGACGGCACGAUCAGACGACUCGCCCGA
modifications: 2'-F C and U (2'-F pyrimidines), 2'-OH purines
With B1 the IC50 [1] was roughly 30 pmol/well, the binding result [2] was “no binding” and the Kd [3] was 7 nM. B1: no binding (TNF alpha (biotinylated)).

From patent publication US6706266, “Oncostatin M antagonists” (SmithKline Beecham Corporation)
